T1: tPA K1-GST (kringle 1 domain of human tPA with C-terminal GST tag) (human; Schistosoma japonicum, UniProt P00750 123-210)
T1 construct: domain: K1; not shown: vector residues and thrombin cleavage site; Schistosoma japonicum glutathion-S-transferase (GST) tag
T1 sequence (looked up): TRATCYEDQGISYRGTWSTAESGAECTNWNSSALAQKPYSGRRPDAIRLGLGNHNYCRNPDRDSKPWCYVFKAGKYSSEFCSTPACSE

T2: tPA-F-EGF-GST (finger and EGF domains of human tPA with C-terminal GST tag) (human; Schistosoma japonicum, UniProt P00750 36-122)
T2 construct: domain: F-EGF; also called F-EGF-tPA; not shown: vector residues and thrombin cleavage site; Schistosoma japonicum glutathion-S-transferase (GST) tag
T2 sequence (looked up): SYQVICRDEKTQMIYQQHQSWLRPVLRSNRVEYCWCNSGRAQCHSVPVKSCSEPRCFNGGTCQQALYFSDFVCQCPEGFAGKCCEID

T3: human factor XII (Hageman factor) (human, UniProt P00748 20-615)
T3 construct: also called FXII; fXII
T3 sequence (looked up): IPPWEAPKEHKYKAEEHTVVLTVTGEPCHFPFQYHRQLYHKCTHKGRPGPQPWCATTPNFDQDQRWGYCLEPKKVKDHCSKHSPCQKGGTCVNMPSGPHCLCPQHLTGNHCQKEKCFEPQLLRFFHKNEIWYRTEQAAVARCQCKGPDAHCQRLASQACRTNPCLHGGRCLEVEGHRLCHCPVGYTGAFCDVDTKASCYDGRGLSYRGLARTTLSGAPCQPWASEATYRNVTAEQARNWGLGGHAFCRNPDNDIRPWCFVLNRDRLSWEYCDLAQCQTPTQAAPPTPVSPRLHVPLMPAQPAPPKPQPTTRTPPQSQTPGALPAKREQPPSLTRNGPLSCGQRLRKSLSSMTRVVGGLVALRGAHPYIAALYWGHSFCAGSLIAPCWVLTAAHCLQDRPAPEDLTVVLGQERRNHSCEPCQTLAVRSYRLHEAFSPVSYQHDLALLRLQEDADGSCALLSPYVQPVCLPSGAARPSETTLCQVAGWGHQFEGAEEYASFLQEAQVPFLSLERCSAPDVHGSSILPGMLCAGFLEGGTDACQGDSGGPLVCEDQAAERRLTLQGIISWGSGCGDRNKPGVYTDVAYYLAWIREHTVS

B1: human islet amyloid polypeptide, full length (fl-hIAPP) (peptide)
peptide: KCNTATCATQRLANFLVHSSNNFGAILSSTNVGSNTY
B2: tPA EGF-GST (EGF domain of human tPA with C-terminal GST tag) (other, UniProt P00750 86-122, looked up)
chain: CSEPRCFNGGTCQQALYFSDFVCQCPEGFAGKCCEID
notes: domain: EGF; not shown: vector residues and thrombin cleavage site; Schistosoma japonicum glutathion-S-transferase (GST) tag
B3: mouse non-amyloidogenic IAPP(20-29) core (ΔmIAPP) (peptide)
peptide: SNNLGPVLPP
notes: Non-amyloid negative control peptide; also called mΔIAPP; MΔIAPP
B4: plasminogen (enzyme, UniProt P00747 20-810, looked up)
chain: EPLDDYVNTQGASLFSVTKKQLGAGSIEECAAKCEEDEEFTCRAFQYHSKEQQCVIMAENRKSSIIIRMRDVVLFEKKVYLSECKTGNGKNYRGTMSKTKNGITCQKWSSTSPHRPRFSPATHPSEGLEENYCRNPDNDPQGPWCYTTDPEKRYDYCDILECEEECMHCSGENYDGKISKTMSGLECQAWDSQSPHAHGYIPSKFPNKNLKKNYCRNPDRELRPWCFTTDPNKRWELCDIPRCTTPPPSSGPTYQCLKGTGENYRGNVAVTVSGHTCQHWSAQTPHTHNRTPENFPCKNLDENYCRNPDGKRAPWCHTTNSQVRWEYCKIPSCDSSPVSTEQLAPTAPPELTPVVQDCYHGDGQSYRGTSSTTTTGKKCQSWSSMTPHRHQKTPENYPNAGLTMNYCRNPDADKGPWCFTTDPSVRWEYCNLKKCSGTEASVVAPPPVVLLPDVETPSEEDCMFGNGKGYRGKRATTVTGTPCQDWAAQEPHRHSIFTPETNPRAGLEKNYCRNPDGDVGGPWCYTTNPRKLYDYCDVPQCAAPSFDCGKPQVEPKKCPGRVVGGCVAHPHSWPWQVSLRTRFGMHFCGGTLISPEWVLTAAHCLEKSPRPSSYKVILGAHQEVNLEPHVQEIEVSRLFLEPTRKDIALLKLSSPAVITDKVIPACLPSPNYVVADRTECFITGWGETQGTFGAGLLKEAQLPVIENKVCNRYEFLNGRVQSTELCAGHLAGGTDSCQGDSGGPLVCFEKDKYILQGVTSWGLGCARPNKPGVYVRVSRFVTWIEGVMRNN
notes: also called Plg

Test [1] has as its target T4, recombinant tissue-type plasminogen activator (tPA) (human, UniProt P00750 36-562).
T4 construct: Commercial full-length recombinant tPA; also called Alteplase; Actilyse
Kind of test: ELISA on Exiqon plates. Background: In an ELISA, binding on a coated surface is turned into a signal by an enzyme label.

In test [2] the target is T4, recombinant tissue-type plasminogen …. Kind of test: ELISA, 25 µg/ml peptide immobilized on Exiqon plates.
Test [3] has as its target T1, tPA K1-GST (kringle 1 domain of human …). Description: pull-down with IAPP fibrils, Western blot. An excerpt: (§1) Conditioned medium was used for pull-down assays using Aβ and IAPP fibrils, followed by Western blot analyses.
(A western blot detects proteins with antibodies after separation by electrophoresis.)

Test [4] addresses T2, tPA-F-EGF-GST (finger and EGF domains …). Description: ELISA, 25 µg/ml peptide immobilized, excess εACA, anti-GST detection.
The target of test [5] is T5, Fn F4-5-GST (finger domains 4-5 of human fibronectin with C-terminal GST tag) (human; Schistosoma japonicum, UniProt P02751 182-276).
T5 construct: domain: fibronectin type I domains 4-5; Printed in places as Fn F4-S-GST (a misprint of F4-5); also called Fn F4-S-GST; fibronectin F4-5; not shown: (G)RP vector residues and thrombin cleavage site; Schistosoma japonicum glutathion-S-transferase (GST) tag
T5 sequence (P02751 182-276, tags left off): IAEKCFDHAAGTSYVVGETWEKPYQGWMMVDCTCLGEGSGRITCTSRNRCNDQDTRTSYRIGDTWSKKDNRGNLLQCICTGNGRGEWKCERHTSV
Kind of test: ELISA, immobilized peptide.

Test [6] addresses T6, human amyloid-β peptide Aβ(1-40) (human).
T6 construct: also called hAβ(1-40); amyloid-β(1-40)
Kind of test: pull-down with Aβ fibrils, Western blot. As for the experimental part: “Control,” medium before the pull-down, “Aβ,” washed amyloid Aβ pellet, after the pull-down, “Sup,” medium after extraction with Aβ. […] MΔIAPP was coated as non-amyloid negative control (Panel E). […] The same sections were incubated with Congo red (Panels I, K, and M) to locate amyloid deposits. Panels N and O: Pull-down assay with insoluble Aβ fibrils and finger domains. […] “Control,” medium before the pull-down, “Aβ,” washed amyloid Aβ pellet, after the pull-down, “Sup,” medium after extraction with Aβ.
as §1

The target in test [7] is B1. Description: pull-down with IAPP fibrils, Western blot.
From the text: as §1

For test [8], the target named is T4, recombinant tissue-type plasminogen …. Kind of test: ELISA, 25 µg/ml peptide immobilized.
For test [9], the target named is T2, tPA-F-EGF-GST (finger and EGF domains …). Kind of test: ELISA, 25 µg/ml peptide immobilized, excess εACA.
Test [10] deals with T3, human factor XII (Hageman factor). Kind of test: ELISA, coated peptide, FXII overlaid. An excerpt: Ten μg of the peptides that contain cross-β structure, as well as the negative control peptide mΔIAPP and phosphate-buffered saline (PBS), were spotted in duplicate.
Wells were coated in triplicate. […] Ten μg of the peptides that contain cross-β structure, as well as the negative control peptide MΔIAPP and phosphate-buffered saline (PBS), were spotted in duplicate onto methanol-activated nitrocellulose.

For test [11], the target named is T6, human amyloid-β peptide Aβ(1-40). Kind of test: ELISA, Aβ coated, plasminogen overlaid.

T6 sequence (peptide, as listed by the source): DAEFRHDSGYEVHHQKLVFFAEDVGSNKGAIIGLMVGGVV

With B1, the Kd – broadly, the equilibrium constant for the complex coming apart – in test [1] came to 6 nM; in test [2] it was 2 nM; in test [4] it was 13 nM. Further, the binding result is “no binding” in test [3] and “binds” in [5].

As to B2, the binding result in test [6] and in test [7] was “no binding” throughout.

As to B3, the binding result in test [8], in test [9] and in test [10] was “no binding” in each case.

On to B4, for which the binding result in test [11] is given as “no binding”.

Source of the values: patent US20090202980A1 (CROSSBETA BIOSCIENCES B V, published 2009).
